Assay results taken from patent US5607850A, “Enzyme from microbial source: phthalyl amidase” (Eli Lilly and Company, priority 1995, dated 1997).

Assays:
[1] = Optimum salt concentration for phthalyl amidase; type: biochemical; conditions: for Specific Activity: pH 8.2, 32° C.
Experimental: Test reactions were carried out similar to Example 6 except that buffer concentrations ranging from 10 to 200 mM at 32° C. were examined. All other conditions and analyses were the same.

[2] = Isoelectric focusing of phthalyl amidase; type: physicochemical
Experimental: The molecular weight of the phthalyl amidase was determined to be 49,000 by electrospray mass spectrometry. The enzyme is monomeric with an isoelectric point estimated by isoelectric focusing to be pH 5.5.

[3] = Effect of pH on phthalyl amidase activity; type: biochemical
Experimental: The effect of pH on the reaction rate of the analytical scale purified enzyme was determined using phthalamido carbacephem (III) as substrate. [drawing 5]
A typical reaction mixture consisted of 1 ml total volume and contained 0.1 mM III, 0.1 μM phthalyl amidase in 50 mM potassium phosphate buffer (pH 5.5-9.0) at 32° C. for 20 minutes. The reactions were stopped by the addition of 1 ml methanol. After removal of precipitate by centrifugation, an aliquot of the supernatant fraction (typically 30 μl) was monitored for the beta-lactam nucleus and phthalic acid by HPLC using a Zorbax C8 column (0.46×15 cm; MacMod Analytical Inc., Chadds Ford, Pa.). The two reaction products were eluted by a mobile phase constructed as continuous mixed gradients from (a) 1% ACN (acetonitrile)/0.2% TFA (trifluoroacetic acid) and (b) 80% ACN/0.2% TFA as follows: 1) 0% (b), 3min; 2) 0-50% (b), 0.5 min; 3) 50-100% (b), 3 min; 4) 100% (b), 2.5 min; 5) 100-1% (b), 0.1 min; and 6) 0% (b), 5 min. At a flow rate of 1.5 ml/min, retention times of the beta-lactam nucleus and phthalic acid, as measured at 254 nm, were 2.3 and 7.2 min, respectively.

[4] = Phthalyl amidase specific activity with chromogenic substrate (II) during purification (Tables 2 and 3); type: biochemical
Experimental: The assay reaction mixture (1 ml) consisted of 0.3 μmol of the chromogenic substrate (II) and 0.001-0.5 μg of enzyme preparation in 50 mM potassium phosphate buffer, pH 8.0 (buffer A). The enzymatic reaction was conducted at 30° C. for 10 minutes and the appearance of product was monitored at 380 nm (or 430 nm). The amount of substrate hydrolyzed was calculated from a standard curve of the amine product.
The phthalyl amidase activity reported in Table 2 was determined using the chromogenic substrate as in Example 3. A typical reaction mixture in a total volume of 1 ml contained 0.2 mg of the chromogenic substrate and an aliquot of phthalyl amidase in buffer A. The enzymatic reaction was conducted at 30° C. for 10-15 min. Formation of the reaction product was monitored with a spectrophotometer at 430 nm (or 380 nm) and quantitated from a standard curve of the product.
The concentrated and diafiltered Super-Q mainstream was applied to a hydroxylapatite column (3.2×40 cm) equilibrated in buffer A. After washing the column with this buffer, phthalyl amidase was eluted using a linear gradient of 0-500 mM phosphate buffer, pH 8.0. Fractions were assayed according to the chromogenic substrate method (see Example 3) and the active fractions were pooled (1 L) and concentrated (400 ml).

[5] = Stability of phthalyl amidase: effect of ionic strength and pH; type: physicochemical
Experimental: The stability of phthalyl amidase at pH values ranging from 6-9 was determined as described in Example 5 at 30° C. in both 20 and 200 mM potassium phosphate buffer. […] In 200 mM buffer, the enzyme retained at least 80% of its activity for 100 hours irrespective of the pH of the incubating medium.

[6] = Temperature stability of phthalyl amidase; type: physicochemical; conditions: pH 8.2; for enzyme activity retained: 48 hours
Experimental: The phthalyl amidase enzyme was also tested for stability at varying temperature. The enzyme was incubated at pH 8.2 in the temperature range of 4°-50° C. for 48 hours in 50 and 200 mM phosphate buffer. […] In 200 mM buffer, 80% of the enzyme activity was retained in temperatures up to 35° C. and 30% of the enzyme activity was retained after 48 hours incubation at 40° C.

[7] = Optimum reaction temperature of phthalyl amidase; type: biochemical
Experimental: Test reactions were carried out similar to Example 5 except that all incubations were performed in 50 mM potassium phosphate buffer at pH 8.2.Solutions of the substrate were pre-incubated for 5 minutes at temperatures between 2° and 60° C. The enzymatic reaction was initiated by the addition of phthalyl amidase and stopped by the addition of 1 ml methanol. Specific activity of the enzyme was determined by monitoring the hydrolysis of III by HPLC as in Example 5.

B1: phthalyl amidase: specific enzyme which readily removes the phthalyl moiety from phthalyl-containing amides, from Xanthobacter agilis (protein)
chain: QAPSVHQHVAFTEEIGDLPDGSSYMIRVPENWNGVLIRDLDLVSGTSNSNAARYETMLKEGFAVAGTARHPLRQWQYDPAHEIENLNHVLDTFEENYGSPERVIQYGCSGGAHVSLAVAEDFSDRVDGSVALAAHTPVWIMNSFLDGWFSLQSLIGEYYVEAGHGPLSDLAITKLPNDGSSNSSGHGMEGDLPAAWRNAFTAANATPEGRARMALAFALGQWSPWLADNTPQPDLDDPEAIADSVYESAMRLAGSPGGEARIMFENAARGQQLSWNDDIDYADFWENSNPAMKSAVQELYDTAGLDLQSDIETVNSQPRIEASQYALDYWNTPGRNVIGDPEVPVLRLHMIGDYQIPYSLVQGYSDLISENNNDDLYRTAFVQSTGHCNFTAAESSAAIEVMMQRLDTGEWPSTEPDDLNAIAEASNTGTEARFMALDGWEIPEYNRTWKPE
- effect of high salt concentration on specific activity ([1]; 10 to 200 mM buffer): markedly improved the specific activity
- Specific Activity ([1]; K Phosphate 10 mM): 148 μmol/min/μmol enzyme
- Specific Activity ([1]; K Phosphate 50 mM): 300 μmol/min/μmol enzyme
- Specific Activity ([1]; K Phosphate 100 mM): 350 μmol/min/μmol enzyme
- Specific Activity ([1]; K Phosphate 200 mM): 360 μmol/min/μmol enzyme
- Specific Activity ([1]; NH4 Acetate 10 mM): 25 μmol/min/μmol enzyme
- Specific Activity ([1]; NH4 Acetate 50 mM): 50 μmol/min/μmol enzyme
- Specific Activity ([1]; NH4 Acetate 100 mM): 75 μmol/min/μmol enzyme
- Specific Activity ([1]; NH4 Acetate 200 mM): 100 μmol/min/μmol enzyme
- Specific Activity ([1]; Tris-HCl 10 mM): 73 μmol/min/μmol enzyme
- Specific Activity ([1]; Tris-HCl 50 mM): 230 μmol/min/μmol enzyme
- Specific Activity ([1]; Tris-HCl 100 mM): 275 μmol/min/μmol enzyme
- Specific Activity ([1]; Tris-HCl 200 mM): 300 μmol/min/μmol enzyme
- isoelectric point [2]: ~5.5 pH
- Reactive pH range [3]: 5.5 to 9.0 pH
- optimum pH [3]: 8.0±0.4 pH
- Optimal pH range for enzyme activity ([3]; 32° C., 50 mM potassium phosphate): ≥ 7.8 pH
- Specific Activity ([3]; pH 7.0, 32° C.): 125.4 μmol/min/μmol enzyme
- Specific Activity ([3]; pH 7.2, 32° C.): 130.4 μmol/min/μmol enzyme
- Specific Activity ([3]; pH 7.4, 32° C.): 155.2 μmol/min/μmol enzyme
- Specific Activity ([3]; pH 7.6, 32° C.): 172.5 μmol/min/μmol enzyme
- Specific Activity ([3]; pH 7.8, 32° C.): 184.2 μmol/min/μmol enzyme
- Specific Activity ([3]; pH 8.0, 32° C.): 195.3 μmol/min/μmol enzyme
- Specific Activity ([3]; pH 8.2, 32° C.): 201.2 μmol/min/μmol enzyme
- Specific Activity ([3]; pH 8.4, 32° C.): 208.0 μmol/min/μmol enzyme
- Specific Activity ([3]; pH 8.6, 32° C.): 181.7 μmol/min/μmol enzyme
- Specific Activity ([3]; pH 8.8, 32° C.): 185.1 μmol/min/μmol enzyme
- Specific Activity ([3]; pH 9.0, 32° C.): 33.1 μmol/min/μmol enzyme
- Spec. Act. ([4]; Table 2, Ammonium Sulfate: 67-97% cut): 1.547 Units/mg
- Spec. Act. ([4]; Table 2, Crude Extract): 0.063 Units/mg
- Spec. Act. ([4]; Table 2, Hydroxylapatite): 5.52 Units/mg
- Spec. Act. ([4]; Table 2, Mono P): 7.2 Units/mg
- Spec. Act. ([4]; Table 2, Phenyl-Sepharose): 2.505 Units/mg
- Spec. Act. ([4]; Table 2, Q Sepharose): 1.214 Units/mg
- Spec. Act. ([4]; Table 3 (preparative), Crude Extract): 0.8 Units/mg
- Spec. Act. ([4]; Table 3 (preparative), Hydroxylapatite): 9.0 Units/mg
- Spec. Act. ([4]; Table 3 (preparative), Super-Q): 3.0 Units/mg
- Optimum ionic strength [5]: ≥ 200 mM
- ionic strength that enhances pH and temperature stability [5]: above 20 mM
- optimum stability pH [5]: 8.0±0.4 pH
- pH range of stability [5]: 6-9 pH
- enzyme activity lost ([5]; 20 mM potassium phosphate, within 2 hours, 30° C., any pH 6-9): all enzyme activity as lost
- enzyme activity retained ([5]; 200 mM potassium phosphate, 100 hours, 30° C., pH 6-9): at least 80%
- enzyme activity lost ([6]; 50 mM phosphate, above 40° C., within 48 hours): all enzyme activity was lost
- enzyme activity retained ([6]; 50 mM phosphate, below 25° C.): 90%
- enzyme activity retained ([6]; 200 mM phosphate, 40° C.): 30%
- enzyme activity outside temperature range ([7]; below 10° C. and above 50° C., pH 8.2): Little enzyme activity
- temperature of maximum reaction rate ([7]; pH 8.2, 50 mM potassium phosphate): 34 °C
